The source of these data is patent US20040087497.

One data set relates to T1, Suc-Ile-Ala-Leu-Dox.
T1 sequence: XAX

The next data set concerns T2, Suc-Leu-Ala-Gly-Dox.
T2 sequence: XAX

The next data set has as its system T3, Suc-Leu-Ala-Leu-Dox.
T3 sequence: XAX

A further data set concerns T4, Suc-Leu-Tyr-Leu-Dox.
T4 sequence: XYX

In a further data set the test system is T5, Suc-Met-Ala-Leu-Dox.
T5 sequence: XAX

The test system of another data set is T6, Suc-βAla-Ile-Ala-Leu-Dox.
T6 sequence: XIAX

A further data set relates to T7, Suc-βAla-Leu-Ala-Leu-Dox.
T7 sequence: XLAX

The next data set relates to T8, Suc-βAla-Leu-Ala-Leu-pNA.
T8 sequence: XLAX

Another data set has as its system T9, Suc-βAla-Leu-Tyr-Leu-Dox.
T9 sequence: XLYX

The mark [1] stands for this setting: scale: fraction relative to Suc-βAla-Leu-Ala-Leu-Dox.

Regarding “purified Porcine Kidney CD10 (Elastin Products Company)”, the % hydrolysis/10 hr (% hydrolysis/10 hr) in the data set with Suc-Ile-Ala-Leu-Dox worked out at 12.5; in the data set with Suc-Leu-Ala-Gly-Dox it was 0; in the data set on Suc-Leu-Ala-Leu-Dox, 8.3; with Suc-Leu-Tyr-Leu-Dox, 0; in the data set with Suc-Met-Ala-Leu-Dox, 37.7; in the data set on Suc-βAla-Ile-Ala-Leu-Dox, 22.1. Also, the % hydrolysis/10 hr (% hydrolysis/10 hr) with Suc-βAla-Leu-Ala-Leu-Dox worked out at 10.9; in the data set with Suc-βAla-Leu-Tyr-Leu-Dox it was 0. In addition, the “Cleaved by CD10” value in the data set on Suc-Ile-Ala-Leu-Dox is “+”; with Suc-Leu-Ala-Gly-Dox it was “-”; in the data set on Suc-Leu-Ala-Leu-Dox, “+”; in the data set with Suc-βAla-Ile-Ala-Leu-Dox, “+”; in the data set with Suc-βAla-Leu-Ala-Leu-Dox, “+”. The Fraction hydrolyzed relative to standard turned out to be 1.1 in the data set on Suc-Ile-Ala-Leu-Dox (setting [1]); 0 in the data set on Suc-Leu-Ala-Gly-Dox (setting [1]); 0.75 with Suc-Leu-Ala-Leu-Dox (setting [1]); 0 with Suc-Leu-Tyr-Leu-Dox (setting [1]); 3.5 in the data set with Suc-Met-Ala-Leu-Dox (setting [1]); 2 in the data set with Suc-βAla-Ile-Ala-Leu-Dox (setting [1]). Also, the Fraction hydrolyzed relative to standard in the data set with Suc-βAla-Leu-Ala-Leu-Dox (setting [1]) is 1; in the data set with Suc-βAla-Leu-Tyr-Leu-Dox (setting [1]), 0. In addition, the “rate of cleavage (release of Leu-pNA) relative to Suc-βAla-Leu-Ala-Leu-Dox (release of Leu-Dox)” value with Suc-βAla-Leu-Ala-Leu-pNA was 590 times more rapidly cleaved.

For thimet oligopeptidase, the “Cleavage by thimet oligopeptidase” value is on record as “-” in the data set with Suc-Ile-Ala-Leu-Dox; “+” with Suc-Leu-Ala-Gly-Dox; “+” with Suc-Leu-Ala-Leu-Dox; “-” in the data set on Suc-βAla-Ile-Ala-Leu-Dox; “+” in the data set on Suc-βAla-Leu-Ala-Leu-Dox.
